# According to paper PMC8560819, “Dynamic interactions and Ca^2+-binding modulate the holdase-type chaperone activity of S100B preventing tau aggregation and seeding” (Nature Communications, 2021):
# B1: R3 peptide (peptide)
# peptide: Ac-PGGGSVQIVYKP-NH2
# notes: 12-residue tau peptide within K18 that holds PHF6 (306-VQIVYK-311); source: synthetic peptide, bought: Genecust (France)
# B2: R2 peptide (peptide)
# peptide: Ac-PGGGKVQIINKK-NH2
# notes: 12-residue tau peptide within K18 that holds PHF6* (275-VQIINK-280); source: synthetic peptide, bought: Genecust (France)
# B3: R0 peptide (peptide)
# peptide: Ac-REPKKVAVVRTP-NH2
# notes: 12-residue tau peptide from the proline-rich region, holds Thr231; also called RO; source: synthetic peptide, bought: Genecust (France)
# B4: S100B (natural protein)
# chain: MSELEKAMVALIDVFHQYSGREGDKHKLKKSELKELINNELSHFLEEIKEQEVVDKVMETLDNDGDGECDFQEFMAFVAMVTTACHEFFEHE
# notes: the crystal structure PDB 2H61 and the assignment BMRB 27199 were used for it; Used unlabelled or uniformly 15N-labelled (M9 medium with 15N-ammonium chloride); also called S100B-Ca^2+; apo S100B
# Key:
# S100B = target: B4; assay: NMR titration; 100 µM 15N-S100B titrated with 50 to 750 µM tau peptide; 50 mM Hepes pH 6.8, 1.25 mM CaCl2, 298 K; Kd from chemical shift perturbation of 11 resonances; conditions: both partners purified
# [1] = target: the molecule itself; assay: SEC-SAXS; Superdex 200 (3.2/300), 50 mM Tris-HCl, 100 mM NaCl, 2% glycerol, 2 mM CaCl2, pH 7.9; S100B alone, S100B mixed with equimolar K18, or K18 alone, 12–13 mg/ml
Kd (S100B) [µM],Binder,stoichiometry N [1]
266,B1,
163,B2,
519,B3,
,B4,2
